Source: PMC10937945

Target: HTNV-L (full-length Hantaan virus polymerase, L protein) (Hantaan virus (strain 76-118/Korean …, UniProt P23456 1-2151))
Assay: cryo-EM; 30 mM HEPES pH 8, 250 mM NaCl, 5 mM TCEP ([…]; temperature not stated
Conditions: protein: recombinant; tags: N-terminal His6

Chain of HTNV-L (full-length Hantaan virus polymerase, L protein) (Hantaan virus (P23456 whole entry): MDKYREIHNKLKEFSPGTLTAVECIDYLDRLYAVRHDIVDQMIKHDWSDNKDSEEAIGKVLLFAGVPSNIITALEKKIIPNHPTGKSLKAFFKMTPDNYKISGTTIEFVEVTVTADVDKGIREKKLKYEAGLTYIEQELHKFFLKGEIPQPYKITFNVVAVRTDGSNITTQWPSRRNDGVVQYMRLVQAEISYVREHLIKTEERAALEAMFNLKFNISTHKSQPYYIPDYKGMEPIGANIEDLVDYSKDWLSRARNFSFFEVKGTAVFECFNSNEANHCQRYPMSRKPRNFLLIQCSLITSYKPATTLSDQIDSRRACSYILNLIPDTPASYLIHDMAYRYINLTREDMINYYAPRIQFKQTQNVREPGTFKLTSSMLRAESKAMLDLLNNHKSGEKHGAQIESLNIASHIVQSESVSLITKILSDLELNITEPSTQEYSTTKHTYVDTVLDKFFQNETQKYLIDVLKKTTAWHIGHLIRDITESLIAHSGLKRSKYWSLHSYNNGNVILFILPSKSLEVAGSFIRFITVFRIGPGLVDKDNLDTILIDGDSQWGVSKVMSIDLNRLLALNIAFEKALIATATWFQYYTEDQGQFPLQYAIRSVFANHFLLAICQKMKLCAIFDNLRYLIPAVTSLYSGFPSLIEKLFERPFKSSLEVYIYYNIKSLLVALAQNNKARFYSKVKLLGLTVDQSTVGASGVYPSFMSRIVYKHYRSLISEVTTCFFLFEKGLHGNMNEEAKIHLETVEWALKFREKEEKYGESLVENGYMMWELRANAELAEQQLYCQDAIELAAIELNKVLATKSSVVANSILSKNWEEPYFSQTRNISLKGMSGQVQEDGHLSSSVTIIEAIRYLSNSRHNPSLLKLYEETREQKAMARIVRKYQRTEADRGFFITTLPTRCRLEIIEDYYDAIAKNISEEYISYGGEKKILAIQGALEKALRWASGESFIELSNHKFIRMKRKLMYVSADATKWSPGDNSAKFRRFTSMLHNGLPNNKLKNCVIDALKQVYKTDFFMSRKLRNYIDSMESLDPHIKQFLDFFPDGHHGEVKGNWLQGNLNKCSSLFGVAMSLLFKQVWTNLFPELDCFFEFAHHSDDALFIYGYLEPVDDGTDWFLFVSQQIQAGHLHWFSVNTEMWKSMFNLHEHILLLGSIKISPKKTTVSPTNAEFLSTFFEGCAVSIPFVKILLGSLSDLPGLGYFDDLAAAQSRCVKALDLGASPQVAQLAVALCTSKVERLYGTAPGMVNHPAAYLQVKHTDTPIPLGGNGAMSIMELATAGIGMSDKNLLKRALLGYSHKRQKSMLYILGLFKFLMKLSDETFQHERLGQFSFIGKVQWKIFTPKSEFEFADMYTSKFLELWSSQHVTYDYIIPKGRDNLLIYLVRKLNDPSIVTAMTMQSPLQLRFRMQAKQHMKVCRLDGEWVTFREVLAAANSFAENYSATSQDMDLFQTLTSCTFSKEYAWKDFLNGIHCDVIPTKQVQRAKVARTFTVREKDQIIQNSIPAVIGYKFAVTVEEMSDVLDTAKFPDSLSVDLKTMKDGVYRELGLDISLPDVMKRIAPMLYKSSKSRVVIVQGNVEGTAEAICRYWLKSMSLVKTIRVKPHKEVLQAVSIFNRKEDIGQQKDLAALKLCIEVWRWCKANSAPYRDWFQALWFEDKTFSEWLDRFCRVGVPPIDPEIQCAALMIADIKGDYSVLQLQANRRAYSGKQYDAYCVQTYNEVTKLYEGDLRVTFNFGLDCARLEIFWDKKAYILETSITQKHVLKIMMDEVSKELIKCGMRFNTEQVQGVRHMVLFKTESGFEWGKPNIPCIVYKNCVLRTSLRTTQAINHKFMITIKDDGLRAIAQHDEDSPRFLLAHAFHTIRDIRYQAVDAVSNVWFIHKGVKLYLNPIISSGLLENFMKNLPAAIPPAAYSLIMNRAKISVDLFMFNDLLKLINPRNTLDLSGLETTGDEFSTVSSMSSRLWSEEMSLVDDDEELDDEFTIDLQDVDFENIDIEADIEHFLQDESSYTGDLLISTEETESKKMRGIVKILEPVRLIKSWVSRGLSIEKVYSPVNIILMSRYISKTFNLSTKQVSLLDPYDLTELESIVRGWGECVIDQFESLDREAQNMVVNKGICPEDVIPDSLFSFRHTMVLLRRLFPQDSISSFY

UAGUAGUAGACACCGCAAGAUGUUA (ssRNA) [5'vRNA]
binding result: binds
